Assay results: patent US7943337B2, “Method for screening a protease” (Asahi Kasei Pharma Corporation, priority 2003, dated 2011)

What was measured:
Type in all cases: biochemical
[1] = Screening of protease for hemoglobin A1c determination (pH 7.5); details: pH 7.5, 37° C. 60 minutes; 550 nm, reference 595 nm; FOD923 developing solution
Experimental: (§1) A screening method is shown in which a protease that cleaves a glycated peptide from N-terminal-glycated pentapeptide of a hemoglobin β-chain without substantially cleaving a glycated amino acid or glycated peptide from N-terminal-glycated pentapeptide of a hemoglobin α-chain. Each 10 μl of a sample for screening was placed in 3 wells of a 96-well plate, respectively. Then, the first well was supplemented with 50 μl of an α-solution, the second well was supplemented with 50 μl of a β-solution, and the third well was supplemented with 50 μl of a control solution. After the plate was incubated at 37° C. for 60 minutes, 50 μl of distilled water and 50 μl of a developing solution were added, and the whole was left at room temperature for 30 minutes. Then, the absorbance at a measuring wavelength of 550 nm and a reference wavelength of 595 nm were determined using a Microplate Reader (model 550, manufactured by Bio-Rad), to select a sample having a difference in the absorbance between the β-solution-supplemented well and the control solution-supplemented well larger than a difference in the absorbance between the α-solution-supplemented well and the control solution-supplemented well. Thus the protease of object was screened. The samples to be used include: carboxypeptidase B (manufactured by Sigma-Aldrich Corp.); carboxypeptidase W (manufactured by Wako Pure Chemical Industries, Ltd.); carboxypeptidase Y (manufactured by Oriental Yeast Co., Ltd.); protease (type XXVII nagase: manufactured by Sigma-Aldrich Corp.); protease (type VIII Subtilisin Carlsberg: manufactured by Sigma-Aldrich Corp.); protease (type XXIV Bacterial: manufactured by Sigma-Aldrich Corp.); Proteinase K (manufactured by Wako Pure Chemical Industries, Ltd.); neutral proteinase (manufactured by Toyobo Co., Ltd.); carboxypeptidase A (manufactured by Wako Pure Chemical Industries, Ltd.); thermolysin (manufactured by Wako Pure Chemical Industries, Ltd.); and distilled water. To confirm a degree of color development caused by a developing solution, 10 μl of 1 mM FVH (manufactured by Peptide Institute Inc.) and 1 mM FVL (manufactured by Peptide Institute Inc.) were placed in a well severally, followed by adding 50 μl of the control solution. The whole was incubated at 37° C. for 60 minutes. Then, 50 μl of distilled water and 50 μl of the developing solution were added and the whole was left at room temperature for 30 minutes, followed by the determination in a similar manner as described above.
(§2) 0.2 mM α-Glycated pentapeptide (manufactured by Peptide Institute Inc.)
(§3) 0.09% 4-Aminoantipyrine (manufactured by Wako Pure Chemical Industries, Ltd.)
(§4) 0.06% TODB (manufactured by Dojindo Laboratories)
(§5) 15 U/ml Peroxidase (manufactured by Sigma-Aldrich Corp.)
(§6) Various bacteria were cultured with shaking in Difco Lactobacilli MRS Broth (manufactured by Becton, Dickinson and Company), a MM medium (2.5% mannose, 2.5% beer yeast extract, pH7.0), and a YPG medium (2% glucose, 1% polypeptone, 2% yeast extract, 0.1% potassium dihydrogen phosphate, 0.05% magnesium sulfate heptahydrate, pH 7.0) at a temperature of from 28 to 30° C. for 1 to 7 days. Then, cells were removed by centrifugation from the culture solutions to obtain culture supernatants. A sample was prepared by diluting the obtained culture supernatants 10-fold with a 10 mM potassium phosphate buffer (pH7.5), and the determination was performed in a similar manner as Example 1.

[2] = as above; details: pH 7.5, 37° C. 60 minutes; 550 nm, reference 595 nm; FOD923 developing solution; remark: listed apart in the source
Experimental: as §1
(§7) 0.2 mM β-Glycated pentapeptide (manufactured by Peptide Institute Inc.)
as §3, §4, §5, §6

[3] = Screening of protease (pH 7.5), control solution without substrate; details: pH 7.5, no substrate; 550 nm, reference 595 nm
Experimental: as §1, §3, §4, §5, §6

[4] = Screening of protease for hemoglobin A1c determination (pH 3.5); details: pH 3.5, 37° C. 60 minutes; 550 nm, reference 595 nm; FOD923 developing solution
Experimental: (§8) A screening method is shown in which a protease that cleaves a glycated peptide from N-terminal-glycated pentapeptide of a hemoglobin β-chain without substantially cleaving a glycated amino acid or glycated peptide from N-terminal-glycated pentapeptide of a hemoglobin α-chain. Each 10 μl of a sample for screening was placed in 3 wells of a 96-well plate, respectively. Then, the first well was supplemented with 50 μl of an α-solution, the second well was supplemented with 50 μl of a β-solution, and the third well was supplemented with 50 μl of a control solution. After the plate was incubated at 37° C. for 60 minutes, 50 μl of pH-regulating solution and 50 μl of a developing solution were added, and the whole was left at room temperature for 30 minutes. Then, the absorbance at a measuring wavelength of 550 nm and a reference wavelength of 595 nm were determined using a Microplate Reader (model 550, manufactured by Bio-Rad), to select a sample having a difference in the absorbance between the β-solution-supplemented well and the control solution-supplemented well larger than a difference in the absorbance between the α-solution-supplemented well and the control solution-supplemented well. Thus the protease of object was screened. The samples to be used include: carboxypeptidase B (manufactured by Sigma-Aldrich Corp.); carboxypeptidase W (manufactured by Wako Pure Chemical Industries, Ltd.); carboxypeptidase Y (manufactured by Oriental Yeast Co., Ltd.); protease (type XXVII nagase: manufactured by Sigma-Aldrich Corp.); protease (type VIII Subtilisin Carlsberg: manufactured by Sigma-Aldrich Corp.); protease (type XXIV Bacterial: manufactured by Sigma-Aldrich Corp.); Proteinase K (manufactured by Wako Pure Chemical Industries, Ltd.); neutral proteinase (manufactured by Toyobo Co., Ltd.); and distilled water. To confirm a degree of color development caused by a developing solution, 10 μl of 1 mM FVH (manufactured by Peptide Institute Inc.) and 1 mM FVL (manufactured by Peptide Institute Inc.) were placed in a well severally, followed by adding 50 μl of the control solution. The whole was incubated at 37° C. for 60 minutes. Then, 50 μl of a pH-regulating solution and 50 μl of the developing solution were added and the whole was left at room temperature for 30 minutes, followed by the determination in a similar manner as described above.
(§9) 50 mM Acetate-sodium acetate (pH3.5)
as §2
(§10) 0.09% 4-aminoantipyrine (manufactured by Wako Pure Chemical Industries, Ltd.)
as §4, §5

[5] = as above; details: pH 3.5, 37° C. 60 minutes; 550 nm, reference 595 nm; FOD923 developing solution; remark: listed apart in the source
Experimental: as §8, §9, §7, §10, §4, §5

[6] = Screening of protease (pH 3.5), control solution without substrate; details: pH 3.5, no substrate; 550 nm, reference 595 nm
Experimental: as §8, §9, §10, §4, §5

B1: protease type XXVII: protease (type XXVII nagase: manufactured by Sigma-Aldrich Corp.) (protein, UniProt P00782 108-382, looked up)
Subtilisin BPN': AQSVPYGVSQIKAPALHSQGYTGSNVKVAVIDSGIDSSHPDLKVAGGASMVPSETNPFQDNNSHGTHVAGTVAALNNSIGVLGVAPSASLYAVKVLGADGSGQYSWIINGIEWAIANNMDVINMSLGGPSGSAALKAAVDKAVASGVVVVAAAGNEGTSGSSSTVGYPGKYPSVIAVGAVDSSNQRASFSSVGPELDVMAPGVSIQSTLPGNKYGAYNGTSMASPHVAGAAALILSKHPNWTNTQVRSSLENTTTKLGDSFYYGKGLINVQAAAQ
α-Solution (absorbance, RAW DATA) [1]: 0.021 | β-Solution (absorbance, RAW DATA) [2]: 0.031 | control solution (absorbance, RAW DATA) [3]: 0.016 | α-Solution (absorbance, RAW DATA) [4]: 0.025 | β-Solution (absorbance, RAW DATA) [5]: 0.021 | control solution (absorbance, RAW DATA) [6]: 0.019
